Data set [1] has as its target T1, NF-kB p50 RHR homodimer (mouse (murine), UniProt P25799 39-363). Put plainly: X-ray crystallography; 11-bp spacing, 3.0 A; Co-crystal structures only; crystallization conditions not in the material; protein stock in 25 mM Tris-HCl pH 7.4, 50 mM NaCl, 1 mM DTT. The following applies: protein: recombinant; chain copies: 2.
Data set [2] addresses T1, NF-kB p50 RHR homodimer. Put plainly: X-ray crystallography; 12-bp spacing, 2.80 A; 2:1 DNA:p50 dimer; second duplex almost unbound, contributes terminal G; Co-crystal structures only; crystallization conditions not in the material; protein stock in 25 mM Tris-HCl pH 7.4, 50 mM NaCl, 1 mM DTT. The settings on record: protein: recombinant; chain copies: 2; blunt; 2 duplexes per p50 dimer, stacked end-to-end.

For data set [3], the target named is T1, NF-kB p50 RHR homodimer. The data set can be described thus: X-ray crystallography; 11-bp spacing, 2.80 A; Co-crystal structures only; crystallization conditions not in the material; protein stock in 25 mM Tris-HCl pH 7.4, 50 mM NaCl, 1 mM DTT. The settings on record: protein: recombinant; chain copies: 2; blunt.
Data set [4] deals with the molecule itself. Put plainly: crystal structure; p50 RHR homodimer co-crystallised with κB DNA (IL-6 17-mer, 2.80 Å; NGAL 10-mer, 2.80 Å; Test 16-mer, 3.0 Å); hanging or sitting drop vapor diffusion; one complex per asymmetric unit.

The source of these data is PMC10527052, “X-ray Crystallographic Study of Preferred Spacing by the NF-κB p50 Homodimer on κB DNA” (Biomolecules, 2023).

B1: Test kB-like DNA 16-mer (dsDNA)
DNA 1: TCAGGGGAATTCCCCTC
DNA 2: AGAGGGGAATTCCCCTG
As to B1, in the data set with NF-kB p50 RHR homodimer [1], the binding result is “binds”.

B2: NGAL kB DNA 10-mer (dsDNA)
DNA 1: GGGAATGTCC
DNA 2: GGACATTCCC
With B2, the binding result with NF-kB p50 RHR homodimer [2] is “binds”.

B3: IL-6 kB DNA 17-mer (dsDNA)
DNA 1: TGTGGGATTTTCCCATG
DNA 2: CATGGGAAAATCCCACA
Take B3: in the data set with NF-kB p50 RHR homodimer [3], the binding result is on record as “binds”.

B4: murine NF-κB p50 subunit Rel homology region (amino acid residues 39–363) (domain or fragment, UniProt P25799 39-363, looked up)
chain: GPYLQILEQPKQRGFRFRYVCEGPSHGGLPGASSEKNKKSYPQVKICNYVGPAKVIVQLVTNGKNIHLHAHSLVGKHCEDGVCTVTAGPKDMVVGFANLGILHVTKKKVFETLEARMTEACIRGYNPGLLVHSDLAYLQAEGGGDRQLTDREKEIIRQAAVQQTKEMDLSVVRLMFTAFLPDSTGSFTRRLEPVVSDAIYDSKAPNASNLKIVRMDRTAGCVTGGEEIYLLCDKVQKDDIQIRFYEEEENGGVWEGFGDFSPTDVHRQFAIVFKTPKYKDVNITKPASVFVQLRRKSDLETSEPKPFLYYPEIKDKEEVQRKRQK
notes: 351-363 disordered in the crystals; murine amino acid numbering; also called p50 RHR; NF-κB p50 homodimer; source: E. coli BL21 (DE3), pET11a, purified (SP Sepharose, Superdex 75 size exclusion)
Turning to B4, the stoichiometry N (commonly the number of molecules, sites or subunits per partner or assembly) in data set [4] is 2.
